Reference: publication PMC4859152 (The Biochemical journal, 2015)

B1: WT Prx3, hyperoxidized dimer (enzyme, human, UniProt P30048 62-256, looked up)
chain: APAVTQHAPYFKGTAVVNGEFKDLSLDDFKGKYLVLFFYPLDFTFVCPTEIVAFSDKANEFHDVNCEVVAVSVDSHFSHLAWINTPRKNGGLGHMNIALLSDLTKQISRDYGVLLEGSGLALRGLFIIDPNGVIKHLSVNDLPVGRSVEETLRLVKAFQYVETHGEVCPANWTPDSPTIKPSPAASKEYFQKVNQ
modifications: per dimer: one Cys-Sp as sulfinic acid (SpO2-), the other active site a Cys-Sp to Cys-Sr disulfide
B2: CT* Prx3, oxidized (as purified) (enzyme, human, UniProt P30048 62-256, looked up)
chain: APAVTQHAPYFKGTAVVNGEFKDLSLDDFKGKYLVLFFYPLDFTFVCPTEIVAFSDKANEFHDVNCEVVAVSVDSHFSHLAWINTPRKNGGLGHMNIALLSDLTKQISRDYGVLLEGSGLALRGLFIIDPNGVIKHLSVNDLPVGRSVEETLRLVKAFQYVETHGEVCPAGWKPGSDTIKPSPAASKEYFQKVNQ
modifications: oxidized form (inter-subunit disulfides)
B3: WT Prx3, reduced (enzyme, human, UniProt P30048 62-256, looked up)
chain: APAVTQHAPYFKGTAVVNGEFKDLSLDDFKGKYLVLFFYPLDFTFVCPTEIVAFSDKANEFHDVNCEVVAVSVDSHFSHLAWINTPRKNGGLGHMNIALLSDLTKQISRDYGVLLEGSGLALRGLFIIDPNGVIKHLSVNDLPVGRSVEETLRLVKAFQYVETHGEVCPANWTPDSPTIKPSPAASKEYFQKVNQ
B4: WT Prx3, oxidized (disulfide) (enzyme, human, UniProt P30048 62-256, looked up)
chain: APAVTQHAPYFKGTAVVNGEFKDLSLDDFKGKYLVLFFYPLDFTFVCPTEIVAFSDKANEFHDVNCEVVAVSVDSHFSHLAWINTPRKNGGLGHMNIALLSDLTKQISRDYGVLLEGSGLALRGLFIIDPNGVIKHLSVNDLPVGRSVEETLRLVKAFQYVETHGEVCPANWTPDSPTIKPSPAASKEYFQKVNQ
modifications: intermolecular disulfides between Cys-Sp and Cys-Sr of the opposing subunit (two per dimer)
B5: WT Prx2, oxidized (disulfide) (enzyme, human, UniProt P32119 1-198, looked up)
chain: MASGNARIGKPAPDFKATAVVDGAFKEVKLSDYKGKYVVLFFYPLDFTFVCPTEIIAFSNRAEDFRKLGCEVLGVSVDSQFTHLAWINTPRKEGGLGPLNIPLLADVTRRLSEDYGVLKTDEGIAYRGLFIIDGKGVLRQITVNDLPVGRSVDEALRLVQAFQYTDEHGEVCPAGWKPGSDTIKPNVDDSKEYFSKHN
modifications: intermolecular disulfides between Cys-Sp and Cys-Sr of the opposing subunit (two per dimer)
B6: CT* Prx2, oxidized (as purified) (enzyme, human, UniProt P32119 1-198, looked up)
chain: MASGNARIGKPAPDFKATAVVDGAFKEVKLSDYKGKYVVLFFYPLDFTFVCPTEIIAFSNRAEDFRKLGCEVLGVSVDSQFTHLAWINTPRKEGGLGPLNIPLLADVTRRLSEDYGVLKTDEGIAYRGLFIIDGKGVLRQITVNDLPVGRSVDEALRLVQAFQYTDEHGEVCPANWTPDSPTIKPNVDDSKEYFSKHN
modifications: oxidized form (inter-subunit disulfides)

Assays:
[1] = molecular target: the molecule itself; test: SEC
[2] = molecular target: the molecule itself; test: non-reducing SDS/PAGE
[3] = molecular target: the molecule itself; test: SEC; remark: listed apart in the source

Protein	stoichiometry N [1]	stoichiometry N [2]	stoichiometry N [3]
B1	2	–	–
B2	–	2	–
B3	–	–	2
B4	–	2	–
B5	10	2	–
B6	–	2	–
